US20210087281A1 (AGOMAB THERAPEUTICS, published 2021)

Columns and labels:
[1] = target: T1, native human MET on living cells (human, UniProt P08581 25-1390); assay: cell-based or functional assay
[2] = target: T2, native mouse MET on living cells (mouse, UniProt P16056 25-1379); assay: cell-based or functional assay
[3] = target: T1, native human MET on living cells; assay: cell-based or functional assay; remark: listed apart in the source
[4] = target: T2, native mouse MET on living cells; assay: cell-based or functional assay; remark: listed apart in the source
[5] = target: T1, native human MET on living cells; assay: cell-based or functional assay; remark: listed apart in the source
[6] = target: T2, native mouse MET on living cells; assay: cell-based or functional assay; remark: listed apart in the source
[7] = target: T1, native human MET on living cells; assay: cell-based or functional assay; remark: listed apart in the source
[8] = target: T2, native mouse MET on living cells; assay: cell-based or functional assay; remark: listed apart in the source
[9] = target: T1, native human MET on living cells; assay: flow cytometry, A549 cells
In short: (§1)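 Chimeric anti-MET antibodies were incubated with living cells expressing native MET, human on A549 and mouse on MLP29. Binding was detected by flow cytometry with phycoerythrin-conjugated anti-human IgG1. Commercial anti-MET antibodies with matching PE secondaries served as positive controls.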

[10] = target: T2, native mouse MET on living cells; assay: flow cytometry, MLP29 cells
In short: as §1

[11] = target: human MET ECD mutant I (mutations 6, 7, 8) (human) (UniProt P08581); assay: ELISA, MET ECD in solid phase, mAb 0-50 nM
[12] = target: human MET ECD mutant J (mutations 6, 7) (human) (UniProt P08581); assay: ELISA, MET ECD in solid phase, mAb 0-50 nM
human MET ECD = target: T3, human MET ECD (human, UniProt P08581 25-932); assay: ELISA, MET ECD in solid phase, mAb 0-20 nM
T3 construct: range 1-932; recombinant ECD made by the applicants; the stated range begins at residue 1, so it includes the signal peptide of the entry; also called hMET; hMET ECD
T3 sequence (P08581 25-932 limits assumed, form in doubt): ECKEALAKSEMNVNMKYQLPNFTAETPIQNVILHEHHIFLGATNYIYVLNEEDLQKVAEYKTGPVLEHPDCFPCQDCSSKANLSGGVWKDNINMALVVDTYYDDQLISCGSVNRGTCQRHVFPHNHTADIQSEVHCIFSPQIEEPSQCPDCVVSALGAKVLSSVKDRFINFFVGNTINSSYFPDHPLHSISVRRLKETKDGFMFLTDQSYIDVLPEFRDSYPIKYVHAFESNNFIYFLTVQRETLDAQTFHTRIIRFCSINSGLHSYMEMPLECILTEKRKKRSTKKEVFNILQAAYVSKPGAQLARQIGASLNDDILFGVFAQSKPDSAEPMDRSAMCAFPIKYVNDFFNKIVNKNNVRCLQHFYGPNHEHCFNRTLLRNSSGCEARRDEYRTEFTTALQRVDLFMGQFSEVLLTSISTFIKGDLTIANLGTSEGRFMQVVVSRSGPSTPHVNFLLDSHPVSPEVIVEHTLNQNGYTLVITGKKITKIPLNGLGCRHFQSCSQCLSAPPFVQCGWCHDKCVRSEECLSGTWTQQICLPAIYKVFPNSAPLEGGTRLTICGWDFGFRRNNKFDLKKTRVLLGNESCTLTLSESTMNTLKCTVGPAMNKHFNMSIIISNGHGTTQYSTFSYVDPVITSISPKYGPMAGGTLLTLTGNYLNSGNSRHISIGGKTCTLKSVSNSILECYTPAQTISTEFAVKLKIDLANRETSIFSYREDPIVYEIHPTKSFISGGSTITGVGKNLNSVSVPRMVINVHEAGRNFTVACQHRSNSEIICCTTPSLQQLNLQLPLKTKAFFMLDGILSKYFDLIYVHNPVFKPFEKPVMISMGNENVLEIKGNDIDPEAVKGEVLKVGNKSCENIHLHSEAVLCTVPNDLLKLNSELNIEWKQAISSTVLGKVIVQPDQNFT
In short: (§2)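 Chimeric llama-human IgG1 antibodies were expressed by transient transfection of mammalian cells and purified by protein A affinity chromatography. Their binding was then measured by ELISA against immobilized MET ECD, with antibody titrated in solution.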

mouse MET ECD = target: T4, mouse MET ECD (mouse, UniProt P16056 25-931); assay: ELISA, MET ECD in solid phase, mAb 0-20 nM
T4 construct: range 1-931; recombinant ECD made by the applicants; the stated range begins at residue 1; also called mMET; mMET ECD
In short: as §2

[13] = target: T5, human MET-Fc (R&D Systems) (human, UniProt P08581 25-932); assay: competition ELISA, hMET-Fc in solid phase, competitor 0.3 nM biotinylated hHGF
T5 construct: extracellular domain; bought chimeric protein; also called hMET; not shown: Fc portion of human IgG1
T5 sequence (P08581 25-932): as the sequence (P08581 25-932 limits assumed, form in doubt) above
In short: (§3)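 N-terminally biotinylated HGF (NHS-LC-biotin); mAbs titrated 0-120 nM against coated MET-Fc; read-out IC₅₀ (50% competition) and IMAX (max % competition at saturation).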

[14] = target: T6, mouse MET-Fc (R&D Systems) (mouse, UniProt P16056 25-929, limits assumed); assay: competition ELISA, mMET-Fc in solid phase, competitor 0.3 nM biotinylated mHGF
T6 construct: bought chimeric protein; also called mMET; not shown: Fc part
In short: as §3

T1 sequence (P08581 25-1390): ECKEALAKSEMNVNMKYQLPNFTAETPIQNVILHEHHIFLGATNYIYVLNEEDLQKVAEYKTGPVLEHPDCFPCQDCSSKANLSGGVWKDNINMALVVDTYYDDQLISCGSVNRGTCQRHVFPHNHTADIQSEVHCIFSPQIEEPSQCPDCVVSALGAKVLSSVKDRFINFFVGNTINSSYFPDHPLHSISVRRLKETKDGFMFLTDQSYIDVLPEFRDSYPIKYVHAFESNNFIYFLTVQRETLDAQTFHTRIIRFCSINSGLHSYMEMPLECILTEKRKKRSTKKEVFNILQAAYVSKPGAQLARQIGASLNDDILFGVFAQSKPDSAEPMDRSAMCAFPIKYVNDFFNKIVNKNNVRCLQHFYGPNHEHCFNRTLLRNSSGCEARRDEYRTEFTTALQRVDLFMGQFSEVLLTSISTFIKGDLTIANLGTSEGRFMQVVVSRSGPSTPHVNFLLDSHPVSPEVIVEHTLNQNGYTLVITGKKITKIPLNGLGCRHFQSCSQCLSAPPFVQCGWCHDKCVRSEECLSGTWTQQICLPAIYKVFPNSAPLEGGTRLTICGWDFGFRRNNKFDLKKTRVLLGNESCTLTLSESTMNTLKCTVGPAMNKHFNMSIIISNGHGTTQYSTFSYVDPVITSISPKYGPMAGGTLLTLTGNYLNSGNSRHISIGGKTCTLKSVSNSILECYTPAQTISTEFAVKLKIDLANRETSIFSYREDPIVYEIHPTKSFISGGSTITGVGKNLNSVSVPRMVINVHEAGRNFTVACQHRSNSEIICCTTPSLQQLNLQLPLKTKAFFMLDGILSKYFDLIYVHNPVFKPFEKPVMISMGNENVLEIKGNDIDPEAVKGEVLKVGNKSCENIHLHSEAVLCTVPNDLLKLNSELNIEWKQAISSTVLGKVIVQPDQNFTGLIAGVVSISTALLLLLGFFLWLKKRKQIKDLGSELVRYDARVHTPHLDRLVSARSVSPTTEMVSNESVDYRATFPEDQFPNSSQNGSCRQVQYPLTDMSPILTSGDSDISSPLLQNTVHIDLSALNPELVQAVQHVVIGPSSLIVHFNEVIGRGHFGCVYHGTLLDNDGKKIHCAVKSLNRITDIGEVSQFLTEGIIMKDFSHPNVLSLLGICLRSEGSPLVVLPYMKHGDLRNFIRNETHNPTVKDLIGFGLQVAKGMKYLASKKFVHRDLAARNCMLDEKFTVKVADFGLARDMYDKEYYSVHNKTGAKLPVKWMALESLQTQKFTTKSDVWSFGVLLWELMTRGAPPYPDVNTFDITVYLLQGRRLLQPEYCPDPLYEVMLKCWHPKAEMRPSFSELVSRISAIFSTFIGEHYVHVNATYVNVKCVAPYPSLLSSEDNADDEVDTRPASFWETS

B1: 71G3 chimeric llama-human IgG1 mAb (antibody, V domains shown)
VH: QVQLVESGGGLVQPGGSLRVSCAASGFTFSTYYMSWVRQAPGKGLEWVSDIRTDGGTYYADSVKGRFTMSRDNAKNTLYLQMNSLKPEDTALYYCARTRIFPSGYDYWGQGTQVTVSS
VL: QAVVTQEPSLSVSPGGTVTLTCGLSSGSVTTSNYPGWFQQTPGQAPRTLIYNTNSRHSGVPSRFSGSISGNKAALTIMGAQPEDEADYYCSLYPGSTTVFGGGTHLTVL
notes: llama VH on human IgG1 CH1-CH2-CH3, llama VL on human lambda CL
**Q.** What does the source list for B1?
**A.** phospho-MET ELISA EC50, A549 cells [1]: 0.41 nM; phospho-MET ELISA EMAX (% HGF activity), A549 cells [1]: 95.7%; phospho-MET ELISA EC50, MLP29 cells [2]: 0.37 nM; phospho-MET ELISA EMAX (% HGF activity), MLP29 cells [2]: 97.8%; scatter score 0-4, HPAF-II, 0.001 nM [3]: 0 score; scatter score 0-4, HPAF-II, 0.004 nM [3]: 0 score; scatter score 0-4, HPAF-II, 0.012 nM [3]: 1 score; scatter score 0-4, HPAF-II, 0.037 nM [3]: 2 score; scatter score 0-4, HPAF-II, 0.111 nM [3]: 3 score; scatter score 0-4, HPAF-II, 0.333 nM [3]: 4 score; scatter score 0-4, HPAF-II, 1.000 nM [3]: 4 score; scatter score 0-4, HPAF-II, 3.000 nM [3]: 4 score; scatter score 0-4, HPAF-II, 9.000 nM [3]: 4 score; scatter score 0-4, MLP29, 0.001 nM [4]: 0 score; scatter score 0-4, MLP29, 0.004 nM [4]: 0 score; scatter score 0-4, MLP29, 0.012 nM [4]: 0 score; scatter score 0-4, MLP29, 0.037 nM [4]: 1 score; scatter score 0-4, MLP29, 0.111 nM [4]: 2 score; scatter score 0-4, MLP29, 0.333 nM [4]: 4 score; scatter score 0-4, MLP29, 1.000 nM [4]: 4 score; scatter score 0-4, MLP29, 3.000 nM [4]: 4 score; scatter score 0-4, MLP29, 9.000 nM [4]: 4 score; protection from staurosporine, viability EC50, MCF10A cells [5]: 5.04 nM; protection from staurosporine, viability EMAX, MCF10A cells [5]: 65.2%; protection from staurosporine, viability EC50, MLP29 cells [6]: 4.85 nM; protection from staurosporine, viability EMAX, MLP29 cells [6]: 62.3%; branches per spheroid, LOC cells, 0.5 nM [7]: 13.7 branches; branches per spheroid, LOC cells, 2.5 nM [7]: 19 branches; branches per spheroid, LOC cells, 12.5 nM [7]: 22.3 branches; branches per spheroid, MLP29 cells, 0.5 nM [8]: 24.7 branches; branches per spheroid, MLP29 cells, 2.5 nM [8]: 34.3 branches; branches per spheroid, MLP29 cells, 12.5 nM [8]: 29.3 branches; EC50 [9]: 0.296 nM; EMAX [9]: 117 % relative to control; EC50 [10]: 0.214 nM; EMAX [10]: 116 % relative to control; % binding (EMAX) compared to WT MET [11]: 100 % WT MET ECD; % binding (EMAX) compared to WT MET [12]: 91.2 % WT MET ECD; EC50 (human MET ECD): 0.067 nM; EMAX (OD450) (human MET ECD): 2.83 AU; EC50 (mouse MET ECD): 0.057 nM; EMAX (OD450) (mouse MET ECD): 2.98 AU; IC50 [13]: 0.49 nM; IMAX [13]: 63.2%; IC50 [14]: 0.53 nM; IMAX [14]: 62.9%
